This is an account of results in article PMC2413007 (2008).

The experiment has as its target soluble form of human recombinant TLR2 (extracellular domain Glu 21-Leu 590) (human, UniProt O60603 21-590).

No end group written: not given here. Pam2 = lipid part of the lipopeptide Pam2CSK4

Chain of soluble form of human recombinant TLR2 (extracellular domain Glu 21-Leu 590) (O60603 21-590): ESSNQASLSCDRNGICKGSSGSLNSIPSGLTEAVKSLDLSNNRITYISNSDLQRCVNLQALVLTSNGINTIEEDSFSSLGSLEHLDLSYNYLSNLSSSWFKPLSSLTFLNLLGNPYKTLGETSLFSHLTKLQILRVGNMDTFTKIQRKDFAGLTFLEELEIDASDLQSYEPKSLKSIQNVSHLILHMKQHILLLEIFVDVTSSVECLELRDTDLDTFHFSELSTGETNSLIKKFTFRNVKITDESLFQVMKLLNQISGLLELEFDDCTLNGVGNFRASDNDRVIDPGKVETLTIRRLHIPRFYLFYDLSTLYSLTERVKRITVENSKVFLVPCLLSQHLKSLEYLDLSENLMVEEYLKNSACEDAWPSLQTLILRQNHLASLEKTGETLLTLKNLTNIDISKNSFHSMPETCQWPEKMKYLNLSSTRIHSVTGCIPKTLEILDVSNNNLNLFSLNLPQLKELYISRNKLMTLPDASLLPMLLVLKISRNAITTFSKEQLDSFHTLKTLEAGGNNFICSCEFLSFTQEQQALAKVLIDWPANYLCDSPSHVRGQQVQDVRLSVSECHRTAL

One may read the Kd as the concentration at which binding is half-saturated. Turning to C(Pam2)SKKKK [Pam2CSK4 lipopeptide], the Kd stood at 5.34 µM.
